Experiments:
c-Src SH2 = assay: SH2 binding enrichment of the phosphorylated peptide, bacterial display (enrichment ratio); higher = better substrate or ligand; peptides without Tyr show the background
Grb2 SH2 = Grb2 SH2 (UniProt P62993); assay: as above
SHP2-C SH2 = assay: as above
c-Abl (mouse) = assay: phosphorylation enrichment, bacterial display (enrichment ratio); higher = better substrate or ligand; peptides without Tyr show the background
FGFR1 = FGFR1 (UniProt P11362); assay: as above
Hck = Hck (UniProt P08631); assay: as above
Fes = Fes (UniProt P07332); assay: as above
FGFR3 = FGFR3 (UniProt P22607); assay: as above
EPHB1 = EPHB1 (UniProt P54762); assay: as above
Fer (mouse) = assay: as above
Jak2 = Jak2 (UniProt O60674); assay: as above
Fyn = Fyn (UniProt P06241); assay: as above
MERTK = MERTK (UniProt Q12866); assay: as above
AncSZ = assay: as above
c-Src = assay: as above
EPHB2 = EPHB2 (UniProt P29323); assay: as above
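Wherever SH2 binding enrichment of the phosphorylated peptide, bacterial display is given: peptide library displayed on the E. coli surface as eCPX fusions, selected cells deep-sequenced, score is each peptide's frequency after selection divided by its frequency in the input.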
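Wherever phosphorylation enrichment, bacterial display is given: 11-residue human phosphosite peptides and single-mutation variants displayed on the E. coli surface, counted by deep sequencing, each peptide's frequency after selection divided by its frequency in the unselected input library; frequency after pTyr selection over input frequency; kinase dosed for 20-30% of maximal phosphorylation in three min.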

Hck, sequence (P08631 whole entry, looked up): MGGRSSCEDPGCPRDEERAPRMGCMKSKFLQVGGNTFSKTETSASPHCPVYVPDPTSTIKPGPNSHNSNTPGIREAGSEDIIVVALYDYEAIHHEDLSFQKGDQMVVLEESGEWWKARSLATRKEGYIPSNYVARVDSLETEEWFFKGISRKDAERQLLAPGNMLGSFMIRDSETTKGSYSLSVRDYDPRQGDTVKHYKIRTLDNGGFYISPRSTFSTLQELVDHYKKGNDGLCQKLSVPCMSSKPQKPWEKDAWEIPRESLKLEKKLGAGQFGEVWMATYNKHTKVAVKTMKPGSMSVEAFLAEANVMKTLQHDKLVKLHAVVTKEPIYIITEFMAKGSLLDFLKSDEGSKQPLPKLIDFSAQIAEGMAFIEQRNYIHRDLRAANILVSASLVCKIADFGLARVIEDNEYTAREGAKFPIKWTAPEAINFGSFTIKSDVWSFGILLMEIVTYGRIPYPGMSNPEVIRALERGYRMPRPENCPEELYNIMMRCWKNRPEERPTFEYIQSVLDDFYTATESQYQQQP
EPHB2, sequence (P29323 whole entry, looked up, the tested form may be a part): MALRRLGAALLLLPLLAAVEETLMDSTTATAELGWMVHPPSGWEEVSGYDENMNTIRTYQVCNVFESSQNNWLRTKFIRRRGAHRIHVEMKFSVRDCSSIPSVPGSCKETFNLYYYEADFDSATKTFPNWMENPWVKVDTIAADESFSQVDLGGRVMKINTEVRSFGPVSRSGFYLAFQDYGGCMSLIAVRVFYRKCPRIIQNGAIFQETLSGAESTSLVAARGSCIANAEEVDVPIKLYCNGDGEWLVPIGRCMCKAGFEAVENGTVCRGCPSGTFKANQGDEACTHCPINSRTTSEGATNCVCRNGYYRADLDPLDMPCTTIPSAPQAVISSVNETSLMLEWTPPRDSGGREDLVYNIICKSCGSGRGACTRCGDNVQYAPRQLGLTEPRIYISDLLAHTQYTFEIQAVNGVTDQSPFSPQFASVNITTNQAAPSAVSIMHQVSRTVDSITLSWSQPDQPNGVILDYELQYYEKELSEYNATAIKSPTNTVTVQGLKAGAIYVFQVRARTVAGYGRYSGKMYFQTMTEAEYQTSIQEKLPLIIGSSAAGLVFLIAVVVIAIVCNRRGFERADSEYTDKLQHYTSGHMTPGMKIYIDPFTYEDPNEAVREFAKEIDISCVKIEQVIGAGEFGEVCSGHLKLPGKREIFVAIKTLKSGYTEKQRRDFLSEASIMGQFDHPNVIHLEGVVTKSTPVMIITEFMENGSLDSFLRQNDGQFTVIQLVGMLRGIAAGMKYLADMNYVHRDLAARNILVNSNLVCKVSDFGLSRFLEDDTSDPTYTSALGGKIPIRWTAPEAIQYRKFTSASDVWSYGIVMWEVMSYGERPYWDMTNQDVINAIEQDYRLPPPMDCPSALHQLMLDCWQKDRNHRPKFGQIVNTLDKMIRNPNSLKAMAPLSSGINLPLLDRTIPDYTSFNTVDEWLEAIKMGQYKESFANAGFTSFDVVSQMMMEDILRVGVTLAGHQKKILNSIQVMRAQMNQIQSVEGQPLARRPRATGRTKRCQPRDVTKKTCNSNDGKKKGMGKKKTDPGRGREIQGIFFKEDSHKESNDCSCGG
Fyn, sequence (P06241 whole entry, looked up): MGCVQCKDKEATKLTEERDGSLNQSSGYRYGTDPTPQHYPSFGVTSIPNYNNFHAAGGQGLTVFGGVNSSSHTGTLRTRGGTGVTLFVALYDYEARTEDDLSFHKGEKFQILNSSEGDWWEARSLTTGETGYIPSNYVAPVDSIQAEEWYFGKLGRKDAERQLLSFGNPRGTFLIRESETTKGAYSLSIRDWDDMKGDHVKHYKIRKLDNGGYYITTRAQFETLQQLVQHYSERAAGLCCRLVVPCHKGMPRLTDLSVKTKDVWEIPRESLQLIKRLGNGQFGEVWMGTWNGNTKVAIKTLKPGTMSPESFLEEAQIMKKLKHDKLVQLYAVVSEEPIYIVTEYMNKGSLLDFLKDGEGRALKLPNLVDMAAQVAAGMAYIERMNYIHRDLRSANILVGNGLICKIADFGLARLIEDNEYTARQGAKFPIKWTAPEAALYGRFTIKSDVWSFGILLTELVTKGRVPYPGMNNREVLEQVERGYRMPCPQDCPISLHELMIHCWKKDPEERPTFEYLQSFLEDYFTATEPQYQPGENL
FGFR3, sequence (P22607 whole entry, looked up): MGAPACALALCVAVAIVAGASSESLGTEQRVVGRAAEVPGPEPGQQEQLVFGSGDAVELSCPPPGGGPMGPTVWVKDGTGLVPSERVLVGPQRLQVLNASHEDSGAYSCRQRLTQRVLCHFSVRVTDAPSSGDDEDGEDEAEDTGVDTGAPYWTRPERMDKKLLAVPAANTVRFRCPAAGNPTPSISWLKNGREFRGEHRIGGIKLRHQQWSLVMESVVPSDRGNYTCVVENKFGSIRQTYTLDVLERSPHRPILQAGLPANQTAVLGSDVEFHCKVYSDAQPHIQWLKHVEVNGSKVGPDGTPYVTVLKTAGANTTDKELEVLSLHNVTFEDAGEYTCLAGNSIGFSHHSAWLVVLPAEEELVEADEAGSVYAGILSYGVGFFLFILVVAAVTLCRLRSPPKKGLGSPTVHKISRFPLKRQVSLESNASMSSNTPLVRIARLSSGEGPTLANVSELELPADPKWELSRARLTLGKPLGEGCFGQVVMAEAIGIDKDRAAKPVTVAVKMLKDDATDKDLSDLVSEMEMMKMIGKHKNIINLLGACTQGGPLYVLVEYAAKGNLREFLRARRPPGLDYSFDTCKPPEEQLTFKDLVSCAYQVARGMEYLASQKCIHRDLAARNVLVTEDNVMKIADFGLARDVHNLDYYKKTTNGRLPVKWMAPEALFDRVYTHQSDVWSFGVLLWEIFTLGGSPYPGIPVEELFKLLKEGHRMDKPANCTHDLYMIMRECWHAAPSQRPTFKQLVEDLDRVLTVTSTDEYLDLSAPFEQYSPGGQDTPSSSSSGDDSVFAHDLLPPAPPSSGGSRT
EPHB1, sequence (P54762 whole entry, looked up): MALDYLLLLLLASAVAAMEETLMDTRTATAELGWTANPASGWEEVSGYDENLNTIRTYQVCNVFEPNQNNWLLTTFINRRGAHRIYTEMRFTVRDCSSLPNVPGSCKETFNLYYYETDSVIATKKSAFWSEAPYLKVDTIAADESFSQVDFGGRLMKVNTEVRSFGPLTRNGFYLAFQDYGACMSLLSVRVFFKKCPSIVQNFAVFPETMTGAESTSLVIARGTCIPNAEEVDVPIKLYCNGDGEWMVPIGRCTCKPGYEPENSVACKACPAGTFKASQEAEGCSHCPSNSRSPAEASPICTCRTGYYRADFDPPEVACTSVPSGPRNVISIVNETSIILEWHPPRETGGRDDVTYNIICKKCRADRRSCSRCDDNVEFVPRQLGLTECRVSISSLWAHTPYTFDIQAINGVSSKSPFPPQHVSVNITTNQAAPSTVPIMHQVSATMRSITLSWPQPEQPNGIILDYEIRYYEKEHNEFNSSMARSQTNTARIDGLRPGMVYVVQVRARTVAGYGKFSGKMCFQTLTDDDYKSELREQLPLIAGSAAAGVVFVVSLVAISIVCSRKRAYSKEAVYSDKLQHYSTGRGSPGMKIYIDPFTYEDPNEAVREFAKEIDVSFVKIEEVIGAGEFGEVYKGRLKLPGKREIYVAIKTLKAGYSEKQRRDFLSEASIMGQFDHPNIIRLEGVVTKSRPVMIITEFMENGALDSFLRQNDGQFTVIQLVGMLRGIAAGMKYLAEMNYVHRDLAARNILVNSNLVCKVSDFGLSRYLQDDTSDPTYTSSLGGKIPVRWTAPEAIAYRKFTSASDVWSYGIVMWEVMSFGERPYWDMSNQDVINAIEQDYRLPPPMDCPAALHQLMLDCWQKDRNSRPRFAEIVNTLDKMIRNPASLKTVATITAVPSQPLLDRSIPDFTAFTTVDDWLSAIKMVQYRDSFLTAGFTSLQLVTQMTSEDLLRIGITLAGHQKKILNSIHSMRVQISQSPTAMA
FGFR1, sequence (P11362 whole entry, looked up): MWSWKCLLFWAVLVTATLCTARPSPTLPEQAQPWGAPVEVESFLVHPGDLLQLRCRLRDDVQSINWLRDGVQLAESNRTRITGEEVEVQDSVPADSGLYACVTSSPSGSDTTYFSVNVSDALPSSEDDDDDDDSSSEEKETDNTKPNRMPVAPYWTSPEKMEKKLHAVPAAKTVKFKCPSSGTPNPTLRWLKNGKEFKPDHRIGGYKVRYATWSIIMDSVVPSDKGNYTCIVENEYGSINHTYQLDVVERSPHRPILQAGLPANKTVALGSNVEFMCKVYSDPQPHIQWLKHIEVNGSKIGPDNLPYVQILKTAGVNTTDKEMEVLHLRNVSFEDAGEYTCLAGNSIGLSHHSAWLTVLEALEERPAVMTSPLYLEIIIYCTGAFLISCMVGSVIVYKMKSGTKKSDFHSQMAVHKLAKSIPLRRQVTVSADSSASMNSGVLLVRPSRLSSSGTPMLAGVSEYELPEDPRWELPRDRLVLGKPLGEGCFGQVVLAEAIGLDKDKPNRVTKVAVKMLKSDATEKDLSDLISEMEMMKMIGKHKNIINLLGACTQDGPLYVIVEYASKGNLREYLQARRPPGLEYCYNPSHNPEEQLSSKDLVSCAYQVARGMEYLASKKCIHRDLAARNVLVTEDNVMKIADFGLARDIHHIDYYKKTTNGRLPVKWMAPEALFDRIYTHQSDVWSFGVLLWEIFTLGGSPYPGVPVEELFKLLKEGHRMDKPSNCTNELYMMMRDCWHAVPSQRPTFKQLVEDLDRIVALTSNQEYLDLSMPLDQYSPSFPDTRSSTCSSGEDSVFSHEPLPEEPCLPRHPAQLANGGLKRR

| SH2 binding enrichment (c-Src SH2) | SH2 binding enrichment (Grb2 SH2) | SH2 binding enrichment (SHP2-C SH2) | Sequence | phosphorylation enrichment (c-Abl (mouse)) | phosphorylation enrichment (FGFR1) | phosphorylation enrichment (Hck) | phosphorylation enrichment (Fes) | phosphorylation enrichment (FGFR3) | phosphorylation enrichment (EPHB1) | phosphorylation enrichment (Fer (mouse)) | phosphorylation enrichment (Jak2) | phosphorylation enrichment (Fyn) | phosphorylation enrichment (MERTK) | phosphorylation enrichment (AncSZ) | phosphorylation enrichment (c-Src) | phosphorylation enrichment (EPHB2) |
| --- | --- | --- | --- | --- | --- | --- | --- | --- | --- | --- | --- | --- | --- | --- | --- | --- |
| 0.656 | 0.993 | 0.703 | FRVDCYKNFVA [FHL1_Y213_C209R_YF] | 0.979 | 0.542 | 0.511 | 1.49 | 0.956 | 0.783 | 0.58 | 1.11 | 0.566 | 0.496 | 1.23 | 0.502 | 0.68 |
| 0.391 | 0.713 | 0.603 | LSEEKYELKEG [TREM1_Y29_T25S] | 0.875 | 0.592 | 0.513 | 1.4 | 0.835 | 0.712 | 0.627 | 1.18 | 0.574 | 0.449 | 1.54 | 0.489 | 0.628 |
| 0.588 | 0.9 | 0.851 | FGVTLYPNSGE [MEP1A_Y472_R476G] | 0.794 | 0.524 | 0.574 | 1.12 | 0.714 | 0.597 | 0.54 | 1.23 | 0.481 | 0.341 | 1.28 | 0.473 | 0.726 |
| 0.611 | 0.849 | 1.64 | PGVNYYFRVSA | 0.79 | 0.787 | 0.469 | 1.08 | 1.01 | 0.715 | 0.466 | 1.26 | 0.466 | 0.448 | 1.11 | 0.331 | 0.706 |
| 0.576 | 0.835 | 0.514 | VKPRRYRPGTV [H3-5_Y41_H39R] | 0.512 | 0.53 | 0.5 | 0.542 | 0.466 | 0.56 | 0.463 | 0.588 | 0.58 | 0.577 | 0.622 | 0.608 | 0.51 |
| 0.453 | 0.777 | 0.737 | TKVTFYKQPMF [GBA_Y451_D448V] | 0.588 | 0.461 | 0.458 | 0.936 | 0.631 | 0.439 | 0.42 | 0.853 | 0.506 | 0.419 | 0.981 | 0.337 | 0.526 |
| 0.83 | 0.907 | 8.03 | TSIGNYFKPWF [DHCR24_Y299_N294T_YF] | 6.12 | 1.66 | 0.46 | 0.778 | 1.23 | 8.6 | 0.473 | 7.94 | 0.428 | 4.44 | 1.03 | 0.348 | 4.48 |
| 0.471 | 0.869 | 0.763 | ANNPLYKEATP [ITGB3_Y773_S778P] | 0.623 | 0.41 | 0.4 | 0.764 | 0.479 | 0.45 | 0.372 | 0.657 | 0.402 | 0.521 | 0.58 | 0.374 | 0.533 |
| 0.645 | 0.892 | 0.708 | CPFNLYAEQLS [HGD_Y40_YF] | 0.77 | 0.577 | 0.772 | 1.37 | 0.698 | 1.16 | 0.636 | 0.935 | 0.642 | 0.769 | 1.15 | 0.696 | 0.816 |
| 0.761 | 0.794 | 1.24 | TAGFIYEKWEI [TEC_Y360_S359I] | 1.12 | 0.474 | 3.79 | 1.72 | 0.804 | 1.35 | 11.6 | 1.24 | 2.78 | 4.47 | 1.45 | 4.11 | 1.45 |
| 0.454 | 0.767 | 0.876 | SLALFYRKVFH [RBL1_Y792_YF] | 0.535 | 0.532 | 0.441 | 1.26 | 0.784 | 0.637 | 0.494 | 1.11 | 0.502 | 0.385 | 1.36 | 0.409 | 0.569 |
| 0.483 | 0.715 | 0.453 | MHLRQYKLLGG [GNAS_Y391_E392K] | 0.478 | 0.478 | 0.522 | 0.764 | 0.535 | 0.534 | 0.399 | 0.548 | 0.443 | 0.412 | 0.51 | 0.419 | 0.44 |
| 0.954 | 1.22 | 1.01 | RHPYFFAPELL [ALB_Y174_Y174F] | 1.19 | 16.3 | 0.598 | 1.33 | 13.9 | 0.723 | 0.541 | 1.39 | 0.601 | 0.557 | 1.22 | 1.29 | 0.613 |
| 0.559 | 1.01 | 0.482 | EEQKKYYNATK [SCN5A_Y1494_M1498T] | 0.407 | 1.29 | 0.478 | 0.673 | 0.554 | 0.543 | 0.421 | 0.476 | 0.467 | 0.411 | 0.59 | 0.363 | 0.521 |
| 0.471 | 0.869 | 0.572 | MEIHAYRKLLE [LMNA_Y376] | 0.672 | 0.443 | 0.414 | 0.97 | 0.57 | 0.479 | 0.527 | 0.814 | 0.429 | 0.383 | 0.804 | 0.397 | 0.67 |
| 1.29 | 1.07 | 0.94 | SSVKPYRVYCD [FGB_Y266] | 0.52 | 0.463 | 0.442 | 0.791 | 0.516 | 0.449 | 0.42 | 0.657 | 0.464 | 0.401 | 0.659 | 0.519 | 0.564 |
| 0.319 | 0.819 | 0.63 | QAQMDYRRLQP [MPL_Y591] | 0.622 | 0.306 | 0.367 | 0.942 | 0.788 | 0.373 | 0.48 | 0.795 | 0.543 | 0.321 | 0.666 | 0.428 | 0.439 |

| SH2 binding enrichment (c-Src SH2) | SH2 binding enrichment (Grb2 SH2) | SH2 binding enrichment (SHP2-C SH2) | Sequence | phosphorylation enrichment (c-Abl (mouse)) | phosphorylation enrichment (FGFR1) | phosphorylation enrichment (Hck) | phosphorylation enrichment (Fes) | phosphorylation enrichment (FGFR3) | phosphorylation enrichment (EPHB1) | phosphorylation enrichment (Fer (mouse)) | phosphorylation enrichment (Jak2) | phosphorylation enrichment (Fyn) | phosphorylation enrichment (MERTK) | phosphorylation enrichment (AncSZ) | phosphorylation enrichment (c-Src) | phosphorylation enrichment (EPHB2) |
| --- | --- | --- | --- | --- | --- | --- | --- | --- | --- | --- | --- | --- | --- | --- | --- | --- |
| 0.438 | 0.826 | 0.622 | TSLAQYDSNSK [BMX_Y216] | 0.543 | 0.525 | 0.428 | 0.736 | 0.443 | 0.352 | 0.37 | 0.579 | 0.344 | 0.444 | 0.622 | 0.479 | 0.568 |
| 0.897 | 0.891 | 0.677 | VEDQYYRVDCY [FHL1_Y208_C209R] | 0.958 | 7.43 | 0.993 | 1.46 | 6.22 | 0.711 | 0.598 | 1.98 | 0.892 | 0.94 | 2.93 | 1.55 | 0.712 |
| 0.531 | 0.875 | 0.899 | GCRSKSVGLWG [KCNQ1_Y184_Y184S] | 0.477 | 0.429 | 0.423 | 0.62 | 0.382 | 0.38 | 0.365 | 0.539 | 0.344 | 0.389 | 0.51 | 0.436 | 0.488 |
| 0.626 | 0.985 | 0.827 | QERPEYWDQET [HLA-A_Y83_G80R] | 1.14 | 0.727 | 0.696 | 1.58 | 0.915 | 0.693 | 1.14 | 1.56 | 0.646 | 0.566 | 1.81 | 0.554 | 0.702 |
| 0.556 | 1.51 | 0.984 | YRVDCYKNFVA [FHL1_Y213_C209R] | 0.543 | 0.565 | 0.487 | 1.22 | 0.753 | 0.559 | 0.493 | 0.837 | 0.504 | 0.507 | 0.984 | 0.415 | 0.595 |
| 0.516 | 1.21 | 0.764 | HHTDECEYDEL [TGM1_Y134_Y134C] | 0.906 | 0.504 | 0.667 | 1.75 | 1.03 | 0.835 | 0.729 | 1.33 | 0.869 | 0.641 | 1.8 | 0.894 | 0.772 |
| 0.511 | 0.752 | 0.748 | ISDNACQYMLT [MYH7_Y162_Y162C] | 0.679 | 0.623 | 0.518 | 1.05 | 0.687 | 0.629 | 0.587 | 1.18 | 0.546 | 0.75 | 1 | 0.811 | 0.583 |
| 0.541 | 1.01 | 0.561 | KLADIYQAELR [GFAP_Y116_V115I] | 0.674 | 0.419 | 0.799 | 0.839 | 0.582 | 0.59 | 0.502 | 0.813 | 0.795 | 0.709 | 0.789 | 1.62 | 0.595 |
| 7.21 | 0.837 | 0.993 | KGYCGYSYDDI [TMEM230_Y110_R108C] | 0.621 | 0.927 | 0.563 | 0.972 | 0.823 | 0.557 | 0.89 | 0.891 | 0.468 | 0.607 | 1.35 | 0.862 | 0.536 |
| 0.519 | 0.936 | 0.777 | SDPIIYTLENI [ADGRE1_Y534] | 0.653 | 0.491 | 1.49 | 1.31 | 0.724 | 0.568 | 7.52 | 0.948 | 7.17 | 1.43 | 0.963 | 5.13 | 0.559 |
| 1.42 | 1.55 | 1.24 | RKMSSYAFFVQ [HMGB1_Y16_G11R] | 0.667 | 0.644 | 0.466 | 1.58 | 0.737 | 0.436 | 0.899 | 0.755 | 0.822 | 1.19 | 1.01 | 0.542 | 0.352 |
| 1.57 | 1.56 | 1.44 | CITIHYNYMCN [TP53_Y234_T230I] | 0.582 | 0.474 | 0.44 | 1.01 | 0.662 | 0.605 | 0.569 | 0.881 | 0.423 | 0.389 | 0.923 | 0.381 | 0.515 |
| 1.34 | 1.45 | 1.73 | RCKSHYAAFSV [C1QTNF1_Y145] | 4.74 | 1.1 | 1.42 | 1.35 | 0.983 | 1.43 | 1.46 | 0.737 | 1.4 | 2.89 | 1.41 | 1.07 | 0.903 |
| 0.311 | 0.724 | 0.465 | IEKLTYIDKWF [CPS1_Y872] | 0.619 | 0.638 | 0.492 | 0.937 | 0.687 | 0.515 | 0.532 | 0.817 | 0.412 | 0.385 | 0.896 | 0.601 | 0.513 |
| 0.572 | 1.05 | 1.07 | KDQGIYEDFVE [MYL6_Y86_T85I_YF] | 0.932 | 0.688 | 1.07 | 1.49 | 0.901 | 0.831 | 1.82 | 1.3 | 2.6 | 0.614 | 1.45 | 2.84 | 0.949 |
| 0.871 | 0.848 | 0.539 | RLGVTYEQALA [MAP2_Y996_G991R] | 0.965 | 0.721 | 0.56 | 1 | 0.825 | 0.729 | 0.535 | 1.15 | 0.77 | 0.737 | 1.36 | 1.05 | 1.81 |
